Measured values: publication PMC11208146, “Molecular basis for transposase activation by a dedicated AAA+ ATPase”

B1: random 60-mer target duplex (dsDNA)
DNA 1: TGCTTGCGATGATCCGACGTGTTAGCCACGCTGACTAGTTATGCCATGCCTCCCTTCAGG
DNA 2: CCTGAAGGGAGGCATGGCATAACTAGTCAGCGTGGCTAACACGTCGGATCATCGCAAGCA
B2: IS21 strand-transfer complex (STC) DNA (dsDNA)
DNA 1: CCTTCTGGGGAATTTTAAACCGGCGATTTTGGGGAAAAAATAATCGGCCTTGACAGCTGCACAGTAAGAGAATTATGCAGTGCTGCCATAACCATGAGTGATAACACTGCGGCCAACTTACTTCTGACAA
DNA 2: ATTCATGTCAAGGCCGATTATTTTTTCCCCAAAATCGCCGGTTTAAAATTCCCCAGAAGG
DNA 3: TTGTCAGAAGTAAGTTGGCCGCAGTGTTATCACTCATGGTTATGGCAGCACTGCATAATTCTCTTACTGT

Columns and labels:
IstB = IstB (Geobacillus stearothermophilus (IS5376, …, UniProt Q45619 1-251)); assay: cryo-EM structure (3.2 A); size-exclusion co-elution; 1 mM ATP, 5 mM MgCl2; IstB-DNA: 20 mM HEPES pH 7.5, 150 mM NaCl, 5 mM MgCl2, 5% glycerol, 1 mM ATP, 1 mM DTT; dialysis at 4 C, SEC at room temperature; IstB:DNA 6.5:1. STC complex buffer not in the material; conditions: protein: recombinant; tags: His6-MBP, cleaved with PreScission protease; chain copies: 10; blunt
[1] = molecular target: IstA;IstB E167Q (Walker B mutant) (Geobacillus stearothermophilus (IS5376, …, UniProt Q45618;Q45619 1-400;1-251, |E167Q)); assay: cryo-EM structure (3.6 A; core 3.2 A); ATP, with ADP in IstA-bound IstB subunits; Mg2+; IstB-DNA: 20 mM HEPES pH 7.5, 150 mM NaCl, 5 mM MgCl2, 5% glycerol, 1 mM ATP, 1 mM DTT; dialysis at 4 C, SEC at room temperature; IstB:DNA 6.5:1. STC complex buffer not in the material; conditions: protein: recombinant;recombinant; tags: C-terminal MBP-His6, cleaved with TEV protease;His6-MBP, cleaved with PreScission protease; chain copies: 4;20; 5' overhang 5 nt on non-transferred strand; half-substrates of 3 strands, 2 copies pair via the insertion site (5 bp spacing)
IstA;IstB = IstA;IstB (Geobacillus stearothermophilus (IS5376, …, UniProt Q45618;Q45619 1-400;1-251, |)); assay: negative-stain EM 2D averages; wild-type IstB; IstB-DNA: 20 mM HEPES pH 7.5, 150 mM NaCl, 5 mM MgCl2, 5% glycerol, 1 mM ATP, 1 mM DTT; dialysis at 4 C, SEC at room temperature; IstB:DNA 6.5:1. STC complex buffer not in the material; conditions: protein: recombinant;recombinant; tags: C-terminal MBP-His6, cleaved with TEV protease;His6-MBP, cleaved with PreScission protease; chain copies: 4;20; 5' overhang 5 nt on non-transferred strand; half-substrates of 3 strands, 2 copies pair via the insertion site (5 bp spacing)

Binder	binding result (IstB)	binding result [1]	binding result (IstA;IstB)
B1	binds	–	–
B2	–	binds	binds
